Laboratory results published in the supplement of paper PMC10567573.

B1: MLL5 (parent)
chain: TYLCERCQPRNLDKERAVLLQRRK
B2: LYSMD4 (parent)
chain: LLQRELAQEDSLNKLALQYGCKVA

Variants of: B1
Assay: protein stability index of a GFP-peptide fusion (GPS, HEK-293T) (PSI 1-6); higher = more stable
Details: c terminus: a fixed tail appended
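Note: lentivirally expressed fusions sorted by FACS into six bins by GFP to DsRed ratio, PSI derived from sequencing read proportions per bin multiplied by bin number.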

Variant	protein stability index
TYPCERCQPRNLDKERAVLLQRRK	2.31
TYVCERCQPRNLDKERAVLLQRRK	2.17
TYCCERCQPRNLDKERAVLLQRRK	1.45
TYACERCQPRNLDKERAVLLQRRK	2.33
TYFCERCQPRNLDKERAVLLQRRK	1.82
TYKCERCQPRNLDKERAVLLQRRK	2.83
TYHCERCQPRNLDKERAVLLQRRK	2.44
TYNCERCQPRNLDKERAVLLQRRK	3.55
TYICERCQPRNLDKERAVLLQRRK	1.55
TYSCERCQPRNLDKERAVLLQRRK	2.18
TYWCERCQPRNLDKERAVLLQRRK	1.96
TYMCERCQPRNLDKERAVLLQRRK	2.02
TYQCERCQPRNLDKERAVLLQRRK	2.42
TYDCERCQPRNLDKERAVLLQRRK	2.99
TYGCERCQPRNLDKERAVLLQRRK	2.85
TYRCERCQPRNLDKERAVLLQRRK	2.16
TYYCERCQPRNLDKERAVLLQRRK	2.56
TYECERCQPRNLDKERAVLLQRRK	3
TYTCERCQPRNLDKERAVLLQRRK	1.98
FYLCERCQPRNLDKERAVLLQRRK	1.27

Variant	protein stability index
GYLCERCQPRNLDKERAVLLQRRK	1.82
YYLCERCQPRNLDKERAVLLQRRK	2.14
KYLCERCQPRNLDKERAVLLQRRK	2.48
IYLCERCQPRNLDKERAVLLQRRK	1.93
SYLCERCQPRNLDKERAVLLQRRK	1.87
HYLCERCQPRNLDKERAVLLQRRK	2.18
MYLCERCQPRNLDKERAVLLQRRK	1.39
VYLCERCQPRNLDKERAVLLQRRK	1.5
WYLCERCQPRNLDKERAVLLQRRK	3.05
RYLCERCQPRNLDKERAVLLQRRK	2.76
EYLCERCQPRNLDKERAVLLQRRK	1.47
NYLCERCQPRNLDKERAVLLQRRK	2.13
DYLCERCQPRNLDKERAVLLQRRK	2.73
QYLCERCQPRNLDKERAVLLQRRK	2.14
AYLCERCQPRNLDKERAVLLQRRK	2.29
TILCERCQPRNLDKERAVLLQRRK	2.77
TMLCERCQPRNLDKERAVLLQRRK	2.53
TGLCERCQPRNLDKERAVLLQRRK	2.78
TVLCERCQPRNLDKERAVLLQRRK	2.16
TWLCERCQPRNLDKERAVLLQRRK	2.76

Variant	protein stability index
TELCERCQPRNLDKERAVLLQRRK	2.4
TRLCERCQPRNLDKERAVLLQRRK	2.88
TCLCERCQPRNLDKERAVLLQRRK	1.76
TQLCERCQPRNLDKERAVLLQRRK	3.53
THLCERCQPRNLDKERAVLLQRRK	2.58
TKLCERCQPRNLDKERAVLLQRRK	3.44
TNLCERCQPRNLDKERAVLLQRRK	2.43
TTLCERCQPRNLDKERAVLLQRRK	2.41
TLLCERCQPRNLDKERAVLLQRRK	2.78
TPLCERCQPRNLDKERAVLLQRRK	3.19
TDLCERCQPRNLDKERAVLLQRRK	2.78
TYLLERCQPRNLDKERAVLLQRRK	2.71
TYLIERCQPRNLDKERAVLLQRRK	1.54
TYLGERCQPRNLDKERAVLLQRRK	3.83
TYLEERCQPRNLDKERAVLLQRRK	4.31
TYLFERCQPRNLDKERAVLLQRRK	2.61
TYLAERCQPRNLDKERAVLLQRRK	4.43
TYLDERCQPRNLDKERAVLLQRRK	4.22
TYLHERCQPRNLDKERAVLLQRRK	3.36
TYLKERCQPRNLDKERAVLLQRRK	3.15

Variants of: B2
Assay: as above
Details: c terminus: a fixed tail appended

Variant	protein stability index
LLQRELAQEDSLNKLALQYGQKVA	2.98
LLQRELAQEDSLNKLALQYGSKVA	2.49
LLQRELAQEDSLNKLALQYGNKVA	3.29
LLQRELAQEDSLNKLALQYGKKVA	2.63
LLQRELAQEDSLNKLALQYGTKVA	3.03
LLQRELAQEDSLNKLALQYGEKVA	3.43
LLQRELAQEDSLNKLALQYGPKVA	2.59
LLQRELAQEDSLNKLALQYGVKVA	1.85
LLQRELAQEDSLNKLALQYGGKVA	2.66
LLQRELAQEDSLNKLALQYGHKVA	2.89
LLQRELAQEDSLNKLALQYGLKVA	1.95
LLQRELAQEDSLNKLALQYGIKVA	1.91
LLQRELAQEDSLNKLALQYGMKVA	1.47
LLQRELAQEDSLNKLALQYGRKVA	2.54
LLQRELAQEDSLNKLALQYGCDVA	2.08
LLQRELAQEDSLNKLALQYGCGVA	2.93
LLQRELAQEDSLNKLALQYGCNVA	2.65

Variant	protein stability index
LLQRELAQEDSLNKLALQYGCLVA	1.62
LLQRELAQEDSLNKLALQYGCTVA	1.32
LLQRELAQEDSLNKLALQYGCQVA	2.21
LLQRELAQEDSLNKLALQYGCAVA	2.7
LLQRELAQEDSLNKLALQYGCHVA	3.15
LLQRELAQEDSLNKLALQYGCPVA	3.45
LLQRELAQEDSLNKLALQYGCSVA	2.2
LLQRELAQEDSLNKLALQYGCIVA	1.78
LLQRELAQEDSLNKLALQYGCYVA	1.35
LLQRELAQEDSLNKLALQYGCRVA	1.29
LLQRELAQEDSLNKLALQYGCEVA	3.75
LLQRELAQEDSLNKLALQYPCKVA	2.66
LLQRELAQEDSLNKLALQYSCKVA	1.72
LLQRELAQEDSLNKLALQYYCKVA	1.74
LLQRELAQEDSLNKLALQYDCKVA	2.94
LLQRELAQEDSLNKLALQYHCKVA	3.73
LLQRELAQEDSLNKLALQYKCKVA	1.62
